Source: the RNAGym collection of RNA variant scans (doi:10.1073/pnas.2313332121)
Variants at the floor of the assay were thinned out.

B1: TPR 5TU (parent)
chain: GGAUCUUCUCGAUCUAACAAAAAAGACAAAUCUGCCACAAAGCUUGAGAGCAUCUUCGGAUGCAGAGGCGGCAGCCUUCGGUGGCGCGAUAGCGCCAACGUUCUCAACUAUGACACGCAAAACGCGUGCUCCGUUGAAUGGAGUUUAUCAUG

Variants of: B1
Assay: polymerase ribozyme fitness, log enrichment relative to wild type (log ratio); higher = more active; in vitro selection for triplet polymerase activity
Method in brief: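 Each subunit of a heterodimeric triplet polymerase ribozyme was represented by a PCR-built, transcribed mutant library that underwent triplicate single-round in vitro selection with frozen incubation at −7 °C. Extended constructs were recovered by gel excision, streptavidin-bead capture and RT-PCR, and Illumina sequencing of input and output libraries kept genotypes with ≥10 input reads and ≥1 read per output. Fitness is the logarithm of genotype enrichment relative to wild-type enrichment, from inverse-variance-weighted replicate averages, with a logarithm base of 2.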

Variant | polymerase ribozyme fitness (log ratio)
GGAUCUUCUCGAUCUAACAAAAAAGACAAAUCUGCCACAAAGCUUGAGAGCAUCUUCGGAUGCAGAGGGGGCAGCCUUCGGUGGCGAGAUCGCGCCAACGUUCUCAACUAUGACACGCAAAACGCAUGCUCCGUUGAAUGGAGUUUAUCAUG | ≤ -4.2
GGAUCUUCUCGAUCUAACAAAAAAGACAAAUCUGCCACAAAGCUUGAGAGCAUCUUCGGAUGCAGAGGUGGCAGUCUUCGGUGGCGCGAUAACGCCAACGUUCGCAACUAUGACACGCAAAACGCGUGCUCCUUUGAAUGGAGUUUAUUAUG | ≤ -4.2
GGAUCUUCUCGAUCUAACAAAAAAGACAAAUCUGCCACAAAGCUUGAGAGCAUCUUCGGAUGCAGAGGGGGUAGCCUUCGGUGGCGCGAUAGCGCCAACGUUCUCAACUAUGACACGCAAAACGCGUGCUCCGAUGAAUGGAGUUUAUCAUG | ≤ -4.2
GGAUCUUCUCGAUCUAACAAAAAAGACAAAUCUGCCACAAAGCUUGAGAGCAUCUUCGGAUGCAGAGGUGGCGGCCUUCGGUCGCGCGAUAGCGCCAACGUUCUCAACUAUGACACGCAAAACGCGUGCUCCGUUGAAUGGAGUUUAUCAUG | -3.38
GGAUCUUCUCGAUCUAACAAAAAAGACAAAUCUGCCACAAAGCUUGAGAGCAUCUUCGGAUGCAGAGGUGGCAGCCUUCGGUGGCGCGAUAGCGCCAACGUUCUCAACUAUGACACGUAAAACGCGUGCUCCGUUGAAUGGAGUUUAUCAUG | -1.4
GGAUCUUCUCGAUCUAACAAAAAAGACAAAUCUGCCACAAAGCUUGAGAGCAUCUUCGGAUGCAGAGGUGGCAGCCUUCGGUGGCGCGAUAGCGCCAACGUUCUCAACUAUGACACGCUAAACGCGUGCUCCGUUGAAUGGAGUUUAUCAUG | -1.57
GGAUCUUCUCGAUCUAACAAAAAAGACAAAUCUGCCACAAAGCUUGAGAGCAUCUUCGGAUGCAGAGGGGGCAGCCUUCGGUGGCCCGAUAGCGCCAACGUUCUCAACUAUGACACGCAACACGCGUGCUCCGUUGAAUGGAGUUUAUCAUG | ≤ -4.2
GGAUCUUCUCGAUCUAACAAAAAAGACAAAUCUGCCACAAAGCUUGAGAGCAUCUUCGGAUGCAGAGGUGGCAGCCUUCGGUGGCGAGAUAGCGCCAACGUUCUCAACUAUGACACGCAAAACGCGUGCUCCGUUGAAUGUAAUUUAUCAUG | ≤ -4.2
GGAUCUUCUCGAUCUAACAAAAAAGACAAAUCUGCCACAAAGCUUGAGAGCAUCUUCGGAUGCAGAGGGGGCAGCCCUCGGUGGCGUGAUAGCGCCAACGUUCUCAACUAUGACACGCAAAACGCGUGCUCCGUUGAAUUGAGUUUAUCAUG | ≤ -4.2
GGAUCUUCUCGAUCUAACAAAAAAGACAAAUCUGCCACAAAGCUUGAGAGCAUCUUCGGAUGCAGAGGUGGUAGCCUUCGGUGGCGCGAUAGCGCCAACGUUCUCAACUAUGACACGCAAAACGCGUGCUCCGUUGAAUGGAGUUUAUCAUG | -1.99
GGAUCUUCUCGAUCUAACAAAAAAGACAAAUCUGCCACAAAGCUUGAGAGCAUCUUCGGAUGCAGAGGUGGCAGCCUUCGGUGGGGCGAUAGCGCCAACGUUCUCAACUAUGACACGCAAAACGCGUGCUCCGUUGAAUGGAGUUUAUCAUG | -2.16
GGAUCUUCUCGAUCUAACAAAAAAGACAAAUCUGCCACAAAGCUUGAGAGCAUCUUCGGAUGCAGAGGUGGCAGCCUUCGGUGGAGCGAUAGCGCCAACGUUCUCAACUAUGACACGCAAAACGCGUGCUCCGUUGAAUGGAGUUUAUCAUG | -3.16
GGAUCUUCUCGAUCUAACAAAAAAGACAAAUCUGCCACAAAGCUUGAGAGCAUCUUCGGAUGCAGAGGUGGCAGCCUUCGGUGGCGCGAUAGCGCCAACGUUCUCAACUAUGACACGCAAAACGCGUGCUCGGUUGAAUUGAGUUUAUCAUG | -1
GGAUCUUCUCGAUCUAACAAAAAAGACAAAUCUGCCACAAAGCUUGAGAGCAUCUUCGGAUGCAGAGGUGGCAGCUUUCGGUGGCGCGAUAGCGCCUACGUUCUCAACGAUCACACGCAAAACGAGUGCUCCGUUGAAUGGAGUUUAUCAUG | ≤ -4.2
GGAUCUUCUCGAUCUAACAAAAAAGACAAAUCUGCCACAAAGCUUGAGAGCAUCUUCGGAUGCAGAGGGGGCAGCCUUCGGUGGCGCGAUAGAGCCAACGUUCUCAACUAUGACACGCAAAACGCGUGCUCCGUUGAAUGGAGUUUAUCAUG | ≤ -4.2
GGAUCUUCUCGAUCUAACAAAAAAGACAAAUCUGCCACAAAGCUUGAGAGCAUCUUCGGAUGCAGAGGGGGCAGCCUUCGGUGGCGCGAUAGGGCCAACGUUCUCAACUAUGACACGCAAAACGCGUGCUCCGUUGAAUGGAGUUUAUCAUG | -3.97
GGAUCUUCUCGAUCUAACAAAAAAGACAAAUCUGCCACAAAGCUUGAGAGCAUCUUCGGAUGCAGAGGGGGCAGCCUUCGGUGGCGCGAUAGCGCCAACGUUGUCAACUAUGACAUGCAAAACGCGUGCUCCGUUGAAUGGAGUUUAUCAUG | -2.03
GGAUCUUCUCGAUCUAACAAAAAAGACAAAUCUGCCACAAAGCUUGAGAGCAUCUUCGGAUGCAGAGGGGGCAGCCUUCGGUGGCGCGAUAGCGCCAACGUUCUCCACUAUGACACGCAAAACGCGUGCUCCGUUGCAUGGAGUUUAUCAUG | ≤ -4.2
GGAUCUUCUCGAUCUAACAAAAAAGACAAAUCUGCCACAAAGCUUGAGAGCAUCUUCGGAUGCAGAGGGGGCAGCCUUCGGUGGCGCGAUAGCGCCAACGGUCUCAACUAUGACACGCAAAACGCGUGCUCCUUUGAAUGGAGUUUAUCAUG | -3.95

Variant | polymerase ribozyme fitness (log ratio)
GGAUCUUCUCGAUCUAACAAAAAAGACAAAUCUGCCACAAAGCUUGAGAGCAUCUUCGGAUGCAGAGGUGGCAGCCUUCGGUGGCGCGAUAGCGCCAACGUUCUCAACUAUGACACGCAAAACGCGUGCUCCGUUGAAUGGAGUUUAUCAUG | -1.03
GGAUCUUCUCGAUCUAACAAAAAAGACAAAUCUGCCACAAAGCUUGAGAGCAUCUUCGGAUGCAGAGGGGGCAGCCUUCGGUGGUGCGAUGGCGCCAACGUUCUCAACUAUGACACGAAAAACGCGUGGUCCGUUGAAUGGAGAUUAUCAUG | ≤ -4.2
GGAUCUUCUCGAUCUAACAAAAAAGACAAAUCUGCCACAAAGCUUGAGAGCAUCUUCGGAUGCAGAGGUGGCAGCCUUCGGUGGCGCGAUAGCGUCAACGUUCUCAACUAUGACACGCAAAACGCGUGCUCCGUUGAAUGGAGUUUAUCAUG | -1.47
GGAUCUUCUCGAUCUAACAAAAAAGACAAAUCUGCCACAAAGCUUGAGAGCAUCUUCGGAUGCAGAGGGGGCAGCCUUCGGUGGAGCGAUAGCUCCAACGUUCUCAACUAUGACACGCAAAACGCGUGCUCCGUUGAAUGGAGUUUAUCAUG | -1.01
GGAUCUUCUCGAUCUAACAAAAAAGACAAAUCUGCCACAAAGCUUGAGAGCAUCUUCGGAUGCAGAGGGGGCAGCCUUCGGUGGUACGAUAGCGCCAACGUUCUCAACUAUGACACGCAAAACGCGUGCUCCGUUGAAUGGAGUUUAUCAUG | -3.62
GGAUCUUCUCGAUCUAACAAAAAAGACAAAUCUGCCACAAAGCUUGAGAGCAUCUUCGGAUGCAGAGGGGGCAGCCUUCGGUGGCGCGAUAGCGCCAAAGUUCUCAACUAUGACGCGCAAAACGCGUGCUCCGUUGAAUGGAGUUUAUCAUG | -3.71
GGAUCUUCUCGAUCUAACAAAAAAGACAAAUCUGCCACAAAGCUUGAGAGCAUCUUCGGAUGCAGAGGUGGCAGCCUUCGGUGGCGCGAUAGCGCGAACGUUCUCAACUAUGACACGCAAAACGUGUGCUCCGUUGAAUGGAGUUUAUCAUG | -1.78
GGAUCUUCUCGAUCUAACAAAAAAGACAAAUCUGCCACAAAGCUUGAGAGCAUCUUCGGAUGCAGAGGGGGCAGCCUUCGGUGGCGCGAUAGCGCCAACGUUCUCAACUAUGACACGCUAAACGCGUGCUCCGUUGAAUGGAGUUUAUCAUG | -1.72
GGAUCUUCUCGAUCUAACAAAAAAGACAAAUCUGCCACAAAGCUUGAGAGCAUCUUCGGAUGCAGAGGUGGCAGCCUUCGGUGGCGCGAUAGCGCCAACGUUCUCAACUAUGACAGGCAAAACGCGUGCUCCGUUGAAUGGAGUUUAUCAUG | 0.325
GGAUCUUCUCGAUCUAACAAAAAAGACAAAUCUGCCACAAAGCUUGAGAGCAUCUUCGGAUGCAGAGGGGGCAGCCUUCGGUGGCGCAAGAGCGCCAACGUUCUCAACUAUGACACGCAAAACGCGUGCUCCGUUGAAUGGAGUUAAUCAUG | ≤ -4.2
GGAUCUUCUCGAUCUAACAAAAAAGACAAAUCUGCCACAAAGCUUGAGAGCAUCUUCGGAUGCAGAGGGGGCAGCGUUCGGUGGCGCGAUAGCGCAAACGUUCUCAACUAUGACACGCAAAACGCGUGCUCCGUUGAGUGGAGUUUAUCAUG | ≤ -4.2
GGAUCUUCUCGAUCUAACAAAAAAGACAAAUCUGCCACAAAGCUUGAGAGCAUCUUCGGAUGCAGAGGGGGCAGCCUUCGGUGGUGCGAUAGCGCCAACGGUCUCAACUAUGACACGCAAAACGCGUGCUCCGUUGAAUGGAGUUUAUCAUG | -1.25
GGAUCUUCUCGAUCUAACAAAAAAGACAAAUCUGCCACAAAGCUUGAGAGCAUCUUCGGAUGCAGAGGUGGCAGCCUUCGGUGGGGCGAUAGCGCCAACGUUCUCAACUAUGACACGCAAAACGCGUGCUCCGUUGAAUGAAGUUUAUCAUG | -2.66
GGAUCUUCUCGAUCUAACAAAAAAGACAAAUCUGCCACAAAGCUUGAGAGCAUCUUCGGAUGCAGAGGUGGCAGCCUUCGGUGGCGCGAUAGCGCCAACGUUCUCCACUAUGACACGCAAAACGCGUGCUCCGUUGAAUGGAGUUUAUCAUG | -2.21
GGAUCUUCUCGAUCUAACAAAAAAGACAAAUCUGCCACAAAGCUUGAGAGCAUCUUCGGAUGCAGAGGGGGCAGCCUUCGGUGGCGCGAUAGCGCCAACGUUAUCAACUAUGACACGCAAAACGCGUGCUCCGUUGAAUGGAGGUUAUCAUG | -1.57
GGAUCUUCUCGAUCUAACAAAAAAGACAAAUCUGCCACAAAGCUUGAGAGCAUCUUCGGAUGCAGAGGUAGCAGCCUUCGGUGGCGCGAUAGCGCCAAAAUUCUCAACUAUGACACGCAAAACGCGUGCUCCGUUGAAUGGAGUUUAUCAUG | ≤ -4.2
GGAUCUUCUCGAUCUAACAAAAAAGACAAAUCUGCCACAAAGCUUGAGAGCAUCUUCGGAUGCAGAGGGGGUAGCCUUCGGUGGCGCGAUAGCGCCAACGUUCUCAACUAUGACACGCAAAACGCGUGCUCCGUUGAAUGGAGUUUAUCAUG | -2.71
GGAUCUUCUCGAUCUAACAAAAAAGACAAAUCUGCCACAAAGCUUGAGAGCAUCUUCGGAUGCAGAGGGGGCAGCCUUCGGUGGCGCGAUAGCGCCAACGUUCUCAACUAUGACACGCAAAACGCUUGCUACGUUGAAUGGAGUUUAUCAUG | ≤ -4.2
GGAUCUUCUCGAUCUAACAAAAAAGACAAAUCUGCCACAAAGCUUGAGAGCAUCUUCGGAUGCAGAGGUGGCAGCGUUCGGUGGCGCGAUAGCGCCAACGUUCUCAACUAUGACACGCAAAACGCGUGCUCCGUUGAAUGGAGUUUAUCAUG | ≤ -4.2
